The values below come from article PMC3858840 (2013).

The assay has as its target calmodulin (Homo sapiens, UniProt P0DP23). As to the kind of experiment: TMR fluorescence titration.

No end group written: not given here.

B1: TMR-labeled L-selectin cytoplasmic peptide cytoplasmic domain (peptide)
chain: ARRLKKGKKSKRSMNDPY
modifications: also: TMR label, site not given here
In turn, B1 had a Kd of approximately 1000 nM.

For orientation: Kd means a measure of binding affinity in units of concentration. The low end stands for higher affinity, the high end for lower affinity.
